# Data taken from the RNAGym collection of RNA variant scans (doi:10.1073/pnas.2313332121).
# B1: TPR t1 (parent)
# chain: GACCAAUCUGCCCUCAGAGCUCGAGAACAUCUUCGGAUGCAGAGGAGGCAGGCUUCGGUGGCGCGAUAGCGCCAACGUCCUCAACCUCCAAUGCAUCCCACCACAUGAUGAUGCCUGAAGAGCCUUGGUUUUUUG
# Variants of: B1
# Assay: polymerase ribozyme fitness, log enrichment relative to wild type (log ratio); higher = more active; in vitro selection for triplet polymerase activity
# In short: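 Each subunit of a heterodimeric triplet polymerase ribozyme was represented by a PCR-built, transcribed mutant library that underwent triplicate single-round in vitro selection with frozen incubation at −7 °C. Extended constructs were recovered by gel excision, streptavidin-bead capture and RT-PCR, and Illumina sequencing of input and output libraries kept genotypes with ≥10 input reads and ≥1 read per output. Fitness is the logarithm of genotype enrichment relative to wild-type enrichment, from inverse-variance-weighted replicate averages, with a logarithm base of 2.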
row,Variant,polymerase ribozyme fitness (log ratio)
1,C13U C72U A74C,0.529
2,U14A C40U C64U A91U,-4.67
3,U14A A50G,-2.52
4,C13U G113A,0.0113
5,U14A G44C G61U C85G U96C G113U,-6.21
6,C15A A29U G69A G120C,-1.85
7,C13U C76G C85U C104G,-7.55
8,C13U G17A C123A,0.664
9,C13U G25C C62G C82A C86A C102U U109C,-7.42
10,U14G G45C C94A C123U,-3.17
11,U14C G42C U92G,-4.23
12,U14A C22U A37U C79U A83C A84C,-5.43
13,U14A G19C A83C C89A A111C C114G,-5.57
14,C13U C82A C97A,-4.74
15,C13U G44U G58A U59A G61A C62U,-2.38
16,C13U G60A A100U C101U C104U A121C,1.93
17,C13U C56G G58C,-0.174
18,C13U U38G G63U C79G C88U C99G G110U G113U,-6.9
19,U14A C73A A74C G120A,-0.495
20,U14G U38G,-3.56
21,C13U U14G A16U G93U G120C,-3.43
22,U14A C123U G127A,-0.509
23,C13U U30G U55G A111U,-4.31
24,C13U G17U G63U U78C,-3.99

row,Variant,polymerase ribozyme fitness (log ratio)
1,C15A A24G,-5.73
2,C13U G51C C85A C124G,-3.2
3,C13U C73G C82A U87C C101A G110C G127A,-6.6
4,U14G G61U,-1.11
5,U14A G61A,-1.88
6,C13U G69U C94U,0.248
7,U14A U81A,-4.19
8,U14A C72G,-2.35
9,C13U U14G C80U C115A,-3.73
10,U14G U55C C70A,-3.8
11,U14C U54G G93C C104U U116G,-3.88
12,U14C G36C U133A,-4.29
13,C13U C123A,1.1
14,U14C A18G,-4.78
15,C13U G51U G52U U78C C82A,-2.57
16,U14C U54G,-1.76
17,C15A A37G G45U C72A G93U U112C G122C C123G U125A,-3.59
18,U14G G47C C70U C85G G117A,-7.02
19,C15A A41C C72A,-2.94
20,C13U G51A U55A C79G C89A,-5.95
21,U14G A50G A84G,-3.03
22,C13U C79A C115A G127C,-1.14
23,U14C G61A G110C,-5.14
24,C13U C53A U92G C101U,-1.94

row,Variant,polymerase ribozyme fitness (log ratio)
1,C13U C115A,-0.378
2,C13U G69C,-1.26
3,U14C G17C C20A A24U A43C C85U A111G,-6.11
4,U14G A46U A74G C101A,-3.18
5,C13U G69C U116C G120C,-0.88
6,C13U C64U A74U C82G,-1.47
7,C13U C62U C85A U106A,-1.41
8,U14C U112G G113U,-5.07
9,U14G G44A C72U C104U,-2.42
10,U14G U21C,-2.74
11,C13U G42U G61A A90U A95U,-1.48
12,U14G G113C,-4.24
13,U14G G113U,-5.7
14,C13U G17U C49U A50C,-2.06
15,C13U G51U C79G G127A,-2.92
16,C13U U81A,-0.11
17,U14G A90C,-3.4
18,U14A G63C C82U U112G,-1.65
19,C13U G35A G45A U87G,-4.53
20,C13U C70G,-1.68
21,C13U C62U,-0.0202
22,C13U C64U U92C U96C,-1.14
23,C13U G45U G117U,-2.03
24,U14G G117A,-2.92

row,Variant,polymerase ribozyme fitness (log ratio)
1,U14G G48U C94A C101U G120C,-2.13
2,U14C C49U A50U U55A,-6.51
3,C13U G45A G71C,-0.496
4,C13U G35C G48C C73A A74G C104U,-4.6
5,C13U G44U A50G C53U C56U G93U C124G,-1.13
6,C13U C49U U55G U92A,-4.11
7,C13U G128C,-1.81
8,C13U G61C A100U A111G G113A,-5.12
9,C13U C70G A83C U112C,-1.45
10,U14G C72U,-1.52
11,U14G C72G,-2.44
12,U14G C72A,-2.6
13,C13U G71U U78G U133G,-0.454
14,U14C A37U,-1.93
15,C13U C53A C72A A103U G127U,-5.25
16,U14G C123U,-0.161
17,C13U C82U,-0.268
18,C13U C88A A90C,-1.03
19,U14A A111G U130A,-3.57
20,U14G C70G U116G,-5.13
21,C15A A27C U55G,-5.9
22,C13U G42U C56U C73U C114G C123A,-2.2
23,U14C C49A C56U U92G C97U A111U,-6.85
24,U14A G36A,-3.62

row,Variant,polymerase ribozyme fitness (log ratio)
1,U14A G17A C20G C115U,-5.9
2,C13U G58C A84G,-0.641
3,C13U G45A,-0.438
4,U14C U116G G120A U129A,-2.37
5,U14G C82U G93C,-2.71
6,C13U G17U C31U U106A C115U,-1.65
7,U14G G71A,-1.59
8,U14G A74U,-2.04
9,U14A G44U G117U A118U,-4.78
10,U14A A24G A119G,-4.72
11,U14C A46U A74G,-1.32
12,C13U C89A,-1.08
13,U14G U87G G127C,-4.35
14,U14A G48U,-2.9
15,U14C G93A G120C,-1.52
16,C13U C70A A121G,0.554
17,U14G C73A A90U,-3.66
18,U14G G61U C89A C99G G113C C115U,-6.86
19,U14G G48A A50G C72A G120C A121C,-1.94
20,C13U G52C U59C C104U G120U G127A,-1.32
21,C13U C98U,-1.1
22,U14G A68G U112G,-5.15
23,C13U G71C,-0.732
24,U14G G47C C85G G117A,-5.3

row,Variant,polymerase ribozyme fitness (log ratio)
1,U14C U21C G61A C101U,-3.37
2,C13U C101U,-0.0534
3,C13U C101A,-0.869
4,U14A G71C,-3.09
5,U14A G71A U130A,-3.52
6,U14C G61U A75C A105C,-3.69
7,C13U C82G C99U,-3.96
8,U14G G60C C70U,-3.06
9,C13U G48U,-1.37
10,U14G A18U G61A C115A U129A U132A,-3.2
11,U14G A50U G61C C86A,-4.54
12,U14G A24G G61A U78C,-4.74
13,C13U G42U G48A U129A,-2.82
14,U14G A50C C101A,-3.99
15,C13U G39U G44U,-1.24
16,U14A C82A C98G G110C,-7.59
17,U14A C79G A83U,-5.11
18,C13U U30C A46U C73U,-5.98
19,U14C G77A,-2.6
20,U14G A27C C85A U109A C124A,-6.27
21,U14G G128A,-3.77
22,C13U G52C C62U C94G A100U G113A,-3
23,C13U C85U,-1.48
24,C13U G47U G135U,-2.07

row,Variant,polymerase ribozyme fitness (log ratio)
1,U14G G45C G110U,-3.81
2,U14G C73G C82A,-3.08
3,U14G C40A G71U A121G G127U,0.306
4,U14C C40A U87C,-3.01
5,U14C C15A A46C,-5.53
6,C13U U131A,-0.274
7,U14G C53U U87A,-2.67
8,U14C A46U G60C U116C G117A,-5.66
9,U14C G36U A41U,-5.76
10,C13U U14C G48U,-3.25
11,C13U C80U A84C C124U,1.02
12,C13U U92A,-2.13
13,U14G G44C G71U U78A,-3.39
14,C13U G23A,-5.12
15,U14C G113A,-3.18
16,C13U U132C,0.0693
17,C13U G19A A41U G44U G69U,-2.81
18,C13U G71U U78C,0.0986
19,C13U C72U U129G,-0.856
20,U14G A43G G52A C53A G77C A100U,-5.52
21,U14A C114U,-5.22
22,C13U C88U,0.907
23,C13U G39A C70A C104U,-1.43
